Measurements taken from article PMC11950852, “Diversity Scale of Library Matters: Impact of mRNA Library Diversity Scales on the Discovery of Macrocyclic Peptides Targeting a Protein by the RaPID System” (ACS Central Science, 2025).
Bridges are numbered along the chain shown (N, C = ends). Where no end group is shown, it is not given here. [ ]: non-standard residue; d: D form.

B1: 8–2 (peptide)
chain: {CH2CO}-YYHWNGRDGDKVEWVVCG-NH2
modifications: thioether N-17
SMILES: CC(C)[C@@H]1NC(=O)[C@H](CCCCN)NC(=O)[C@H](CC(=O)O)NC(=O)CNC(=O)[C@H](CC(=O)O)NC(=O)[C@H](CCCNC(=N)N)NC(=O)CNC(=O)[C@H](CC(N)=O)NC(=O)[C@H](Cc2c[nH]c3ccccc23)NC(=O)[C@H](Cc2c[nH]cn2)NC(=O)[C@H](Cc2ccc(O)cc2)NC(=O)[C@H](Cc2ccc(O)cc2)NC(=O)CSC[C@@H](C(=O)NCC(N)=O)NC(=O)[C@H](C(C)C)NC(=O)[C@H](C(C)C)NC(=O)[C@H](Cc2c[nH]c3ccccc23)NC(=O)[C@H](CCC(=O)O)NC1=O
B2: 12–5 (peptide)
chain: {CH2CO}-YLVWHEYDSKKWYFSLCG-NH2
modifications: thioether N-17
SMILES: CC(C)C[C@@H]1NC(=O)[C@H](CO)NC(=O)[C@H](Cc2ccccc2)NC(=O)[C@H](Cc2ccc(O)cc2)NC(=O)[C@H](Cc2c[nH]c3ccccc23)NC(=O)[C@H](CCCCN)NC(=O)[C@H](CCCCN)NC(=O)[C@H](CO)NC(=O)[C@H](CC(=O)O)NC(=O)[C@H](Cc2ccc(O)cc2)NC(=O)[C@H](CCC(=O)O)NC(=O)[C@H](Cc2c[nH]cn2)NC(=O)[C@H](Cc2c[nH]c3ccccc23)NC(=O)[C@H](C(C)C)NC(=O)[C@H](CC(C)C)NC(=O)[C@H](Cc2ccc(O)cc2)NC(=O)CSC[C@@H](C(=O)NCC(N)=O)NC1=O
B3: 14–3 (peptide)
chain: {CH2CO}-YLSWSEFDSKNWSLAYCG-NH2
modifications: thioether N-17
SMILES: CC(C)C[C@@H]1NC(=O)[C@H](CO)NC(=O)[C@H](Cc2c[nH]c3ccccc23)NC(=O)[C@H](CC(N)=O)NC(=O)[C@H](CCCCN)NC(=O)[C@H](CO)NC(=O)[C@H](CC(=O)O)NC(=O)[C@H](Cc2ccccc2)NC(=O)[C@H](CCC(=O)O)NC(=O)[C@H](CO)NC(=O)[C@H](Cc2c[nH]c3ccccc23)NC(=O)[C@H](CO)NC(=O)[C@H](CC(C)C)NC(=O)[C@H](Cc2ccc(O)cc2)NC(=O)CSC[C@@H](C(=O)NCC(N)=O)NC(=O)[C@H](Cc2ccc(O)cc2)NC(=O)[C@H](C)NC1=O
B4: 14–4 (peptide)
chain: {CH2CO}-YYSWTGRDFDAVKWNKCG-NH2
modifications: thioether N-17
SMILES: CC(C)[C@@H]1NC(=O)[C@H](C)NC(=O)[C@H](CC(=O)O)NC(=O)[C@H](Cc2ccccc2)NC(=O)[C@H](CC(=O)O)NC(=O)[C@H](CCCNC(=N)N)NC(=O)CNC(=O)[C@H]([C@@H](C)O)NC(=O)[C@H](Cc2c[nH]c3ccccc23)NC(=O)[C@H](CO)NC(=O)[C@H](Cc2ccc(O)cc2)NC(=O)[C@H](Cc2ccc(O)cc2)NC(=O)CSC[C@@H](C(=O)NCC(N)=O)NC(=O)[C@H](CCCCN)NC(=O)[C@H](CC(N)=O)NC(=O)[C@H](Cc2c[nH]c3ccccc23)NC(=O)[C@H](CCCCN)NC1=O
B5: 14–5 (peptide)
chain: {CH2CO}-YLSWKYYDSSDWVILSCG-NH2
modifications: thioether N-17
SMILES: CC[C@H](C)[C@@H]1NC(=O)[C@H](C(C)C)NC(=O)[C@H](Cc2c[nH]c3ccccc23)NC(=O)[C@H](CC(=O)O)NC(=O)[C@H](CO)NC(=O)[C@H](CO)NC(=O)[C@H](CC(=O)O)NC(=O)[C@H](Cc2ccc(O)cc2)NC(=O)[C@H](Cc2ccc(O)cc2)NC(=O)[C@H](CCCCN)NC(=O)[C@H](Cc2c[nH]c3ccccc23)NC(=O)[C@H](CO)NC(=O)[C@H](CC(C)C)NC(=O)[C@H](Cc2ccc(O)cc2)NC(=O)CSC[C@@H](C(=O)NCC(N)=O)NC(=O)[C@H](CO)NC(=O)[C@H](CC(C)C)NC1=O
B6: 10–1 (peptide)
chain: {CH2CO}-YYSWSGSVSESVKWNSCG-NH2
modifications: thioether N-17
SMILES: CC(C)[C@@H]1NC(=O)[C@H](CO)NC(=O)CNC(=O)[C@H](CO)NC(=O)[C@H](Cc2c[nH]c3ccccc23)NC(=O)[C@H](CO)NC(=O)[C@H](Cc2ccc(O)cc2)NC(=O)[C@H](Cc2ccc(O)cc2)NC(=O)CSC[C@@H](C(=O)NCC(N)=O)NC(=O)[C@H](CO)NC(=O)[C@H](CC(N)=O)NC(=O)[C@H](Cc2c[nH]c3ccccc23)NC(=O)[C@H](CCCCN)NC(=O)[C@H](C(C)C)NC(=O)[C@H](CO)NC(=O)[C@H](CCC(=O)O)NC(=O)[C@H](CO)NC1=O
B7: 14–2 (peptide)
chain: {CH2CO}-YYSWSGKDVDSVIWNNCG-NH2
modifications: thioether N-17
SMILES: CC[C@H](C)[C@@H]1NC(=O)[C@H](C(C)C)NC(=O)[C@H](CO)NC(=O)[C@H](CC(=O)O)NC(=O)[C@H](C(C)C)NC(=O)[C@H](CC(=O)O)NC(=O)[C@H](CCCCN)NC(=O)CNC(=O)[C@H](CO)NC(=O)[C@H](Cc2c[nH]c3ccccc23)NC(=O)[C@H](CO)NC(=O)[C@H](Cc2ccc(O)cc2)NC(=O)[C@H](Cc2ccc(O)cc2)NC(=O)CSC[C@@H](C(=O)NCC(N)=O)NC(=O)[C@H](CC(N)=O)NC(=O)[C@H](CC(N)=O)NC(=O)[C@H](Cc2c[nH]c3ccccc23)NC1=O
B8: aML5 (peptide)
peptide: {CH2CO}-YISWNEFNSPNWRFITCG-NH2
modifications: thioether N-17
SMILES: CC[C@H](C)[C@@H]1NC(=O)[C@H](Cc2ccc(O)cc2)NC(=O)CSC[C@@H](C(=O)NCC(N)=O)NC(=O)[C@H]([C@@H](C)O)NC(=O)[C@H]([C@@H](C)CC)NC(=O)[C@H](Cc2ccccc2)NC(=O)[C@H](CCCNC(=N)N)NC(=O)[C@H](Cc2c[nH]c3ccccc23)NC(=O)[C@H](CC(N)=O)NC(=O)[C@@H]2CCCN2C(=O)[C@H](CO)NC(=O)[C@H](CC(N)=O)NC(=O)[C@H](Cc2ccccc2)NC(=O)[C@H](CCC(=O)O)NC(=O)[C@H](CC(N)=O)NC(=O)[C@H](Cc2c[nH]c3ccccc23)NC(=O)[C@H](CO)NC1=O
notes: Benchmark macrocycle from an earlier RaPID selection; measured again here; also called 17-mer aML5
B9: 14–6 (peptide)
chain: {CH2CO}-YIEWYVYDSKSWVYVRCG-NH2
modifications: thioether N-17
SMILES: CC[C@H](C)[C@@H]1NC(=O)[C@H](Cc2ccc(O)cc2)NC(=O)CSC[C@@H](C(=O)NCC(N)=O)NC(=O)[C@H](CCCNC(=N)N)NC(=O)[C@H](C(C)C)NC(=O)[C@H](Cc2ccc(O)cc2)NC(=O)[C@H](C(C)C)NC(=O)[C@H](Cc2c[nH]c3ccccc23)NC(=O)[C@H](CO)NC(=O)[C@H](CCCCN)NC(=O)[C@H](CO)NC(=O)[C@H](CC(=O)O)NC(=O)[C@H](Cc2ccc(O)cc2)NC(=O)[C@H](C(C)C)NC(=O)[C@H](Cc2ccc(O)cc2)NC(=O)[C@H](Cc2c[nH]c3ccccc23)NC(=O)[C@H](CCC(=O)O)NC1=O

Legend:
[1] = biological target: T1, ectodomain of MET fused to Fc (UniProt P08581 25-932); test: SPR; fitted by a 1:1 binding model; who was immobilised and the conditions are in the Supporting Information (not shown); conditions: both partners purified
T1 construct: MET (hepatocyte growth factor receptor), a receptor tyrosine kinase; also called MET-Fc; Fc-tagged MET

[2] = biological target: T2, ectodomain of MET fused to Fc (UniProt P08581 25-932); test: SPR
T2 chain: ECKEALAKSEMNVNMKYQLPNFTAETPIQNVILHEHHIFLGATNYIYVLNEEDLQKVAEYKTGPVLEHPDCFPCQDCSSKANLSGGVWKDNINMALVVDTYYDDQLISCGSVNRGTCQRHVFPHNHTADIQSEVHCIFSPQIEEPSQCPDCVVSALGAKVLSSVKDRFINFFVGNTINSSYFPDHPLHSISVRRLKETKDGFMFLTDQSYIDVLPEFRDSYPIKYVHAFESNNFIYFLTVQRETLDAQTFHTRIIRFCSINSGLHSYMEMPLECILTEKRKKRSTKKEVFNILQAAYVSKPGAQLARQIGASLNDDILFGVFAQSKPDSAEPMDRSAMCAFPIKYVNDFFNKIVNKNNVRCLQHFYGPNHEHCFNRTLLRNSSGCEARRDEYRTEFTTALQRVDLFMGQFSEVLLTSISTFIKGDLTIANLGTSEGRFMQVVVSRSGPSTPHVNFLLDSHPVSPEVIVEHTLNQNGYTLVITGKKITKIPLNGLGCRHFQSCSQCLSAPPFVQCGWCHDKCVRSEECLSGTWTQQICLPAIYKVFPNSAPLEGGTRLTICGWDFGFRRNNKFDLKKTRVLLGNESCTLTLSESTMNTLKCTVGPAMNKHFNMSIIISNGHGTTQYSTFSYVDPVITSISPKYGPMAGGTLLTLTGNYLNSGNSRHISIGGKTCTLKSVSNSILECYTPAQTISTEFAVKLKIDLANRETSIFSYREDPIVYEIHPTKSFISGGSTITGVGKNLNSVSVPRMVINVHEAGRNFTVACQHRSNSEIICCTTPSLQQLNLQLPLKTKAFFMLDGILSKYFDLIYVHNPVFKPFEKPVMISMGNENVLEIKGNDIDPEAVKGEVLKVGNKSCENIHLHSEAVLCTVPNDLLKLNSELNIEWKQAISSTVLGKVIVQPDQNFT

[3] = biological target: T2, ectodomain of MET fused to Fc; test: SPR

| Binder | koff [1] [s⁻¹] | Kd [2] [nM] | koff [3] [s⁻¹] | Kd [1] [nM] |
| --- | --- | --- | --- | --- |
| B1 | 0.0103 | – | – | – |
| B2 | – | 15.4 | 0.002 | – |
| {CH2CO}-YWVYGFGKLNNDWRAFCG (thioether N-17 (inferred)) [14–1] | – | 2.87 | 0.000739 | – |
| B3 | – | 35 | 0.00297 | – |
| B4 | – | 2.49 | 0.00198 | – |
| {CH2CO}-YWYYTFDGRWKEYGAACG (thioether N-17 (inferred)) [8–1] | 0.0427 | – | – | – |
| B5 | – | 64.7 | 0.00836 | – |
| B6 | ~0.01 | – | 0.00878 | – |
| B7 | – | 3.93 | 0.00182 | – |
| B8 | – | – | 0.00606 | 11.2 |
| {CH2CO}-YSWYLNWQAQWKKFEFCG (thioether N-17 (inferred)) [6–1] | 0.0518 | – | – | – |
| {CH2CO}-YFYYNWTNVAKWAKTLCG (thioether N-17 (inferred)) [6–2] | 0.0074 | 102 | – | – |
| B9 | – | 31.5 | 0.00564 | – |
| {CH2CO}-[dY]RQFNRRTHEVWNLDCG (thioether N-16 (inferred)) [aMD4] | – | – | 0.00676 | 3.7 |
| {CH2CO}-YWYYTFDGRWEEYDAACG (thioether N-17 (inferred)) [8–3] | 0.0464 | – | – | 199 |
